From the supplement of paper PMC10567573

B1: SNX8 (parent)
chain: LHQETQLIHVYLPLTSHILRAFVN
B2: WSB1 (parent)
chain: FSHDGLHVASLADDKMVRFWRIDE

Variants of: B1
Assay: protein stability index of a GFP-peptide fusion (GPS, HEK-293T) (PSI 1-6); higher = more stable
Conditions: c terminus: a fixed tail appended
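Note: lentivirally expressed fusions sorted by FACS into six bins by GFP to DsRed ratio, PSI derived from sequencing read proportions per bin multiplied by bin number.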

Protein stability index, by site and new letter:
Y11: K 2.95; L 2.05; M 3.64; N 2.81; P 2.78; Q 3.1; R 1.86; S 1.91; T 1.89; V 1.99
L12: C 2.52; D 2.19; E 1.83; F 2.58; G 3.44; H 3.23; K 2.29; M 2.71; N 2.08; P 2.21; Q 3.42; R 2.48; S 1.7; T 2.49; V 1.91; W 3.2; Y 3.18
P13: A 3.59; D 2.7; H 1.38; I 1.9; K 1.72; L 3.99; M 2.55; Q 2.68; R 2.29; S 3; T 2.91; V 1.85; W 3.14; Y 1.95
L14: A 2.98; C 3.23; D 2.72; F 1.31; G 3.49; H 2.13; K 3.14; M 2.41; N 4.27; P 2.64; Q 3.75; R 2.49; S 2; T 2.29; V 3.59; W 1.8; Y 1.58
T15: A 2.23; C 2.46; D 3.4; F 1.58; G 1.2; H 3.58; I 2.85; K 3.35; L 1.86; M 1.58; N 3.74; P 2.3; Q 1.75; R 2.25; V 4.03; W 2.9; Y 1.79
S16: A 1.94; C 2.36; E 2.16; H 1.82; I 1.47; K 2.77; L 2.08; M 2; N 2.52; Q 2.5; R 2.83; V 1.81; W 2.31; Y 2.08
H17: A 2.06; C 1.58; D 2.58; E 2.75; F 3.82; G 1.77; I 2.46; L 1.69; M 2.52; N 2.47; P 2.34; Q 2.97; R 2.42; S 3.54; T 1.85; V 1.92; W 3.19; Y 2.6
I18: A 1.85; C 3.75; D 2.65; F 1.93; G 1.71; H 2.63; K 1.97; L 3.11; M 1.88; N 1.79; P 3.99; Q 2.27; R 2.44; S 3.95; T 2.89; V 3.55; W 2.33; Y 2.39
L19: A 2.99; C 2.66; D 1.52; E 2.23; F 3.61; G 3.75; H 2.24; I 3.22; K 2.47; N 1.99; P 3.45; Q 5.08; S 2.3; T 1.84; V 4.01; W 1.57; Y 3.67
R20: A 3.61; C 2.94; D 1.93; G 3.27; H 2.95; I 2.9; L 3.82; M 3.04; N 3.03; P 3; Q 1.89; T 1.72; V 1.72; Y 3.11
A21: C 2.73; D 2.8; E 2.48; F 1.38; I 3.77; K 2.03; M 3.49; N 3.01; P 2.84; Q 2.01; R 2.63; T 1.84; W 2.18; Y 2.35
F22: C 3.79; D 2.12; G 2.88; H 1.96; I 1.79; K 2.21; L 2.39; M 1.52; N 1.92; P 3.46; Q 2.57; R 2.4; S 2.14; V 2.75; Y 4.5
V23: A 3.31; D 2.39; E 2.79; F 2.14; H 2.58; I 1.96; L 2.22; M 2.4; P 2.03; Q 2.27; S 2; T 3.16; W 3.24; Y 3.02
N24: A 2.76; D 2.94; F 3.69; H 5.51; K 2.06; L 2.37; Q 2.93; S 2.59; T 2.16; V 3.76; Y 2.88

Variants of: B2
Assay: as above
Conditions: c terminus: a fixed tail appended

Protein stability index of substitutions, site by site:
F1: A 2.85; C 2.99; D 4.46; E 4.03; G 3.43; H 3.01; I 2.89; K 3.4; L 3.14; M 3.81; N 3.25; P 3.52; Q 3.9; S 3.33; T 3.73; W 2.3; Y 2.49
S2: D 3.79; E 2.34; F 1.97; G 1.15; I 2.46; L 1.58; M 3.12; N 2.78; P 1.69; R 2.61; V 2.64; Y 1.83
H3: A 2.89; C 3.26; D 2.2; E 1.71; G 2.95; K 2.08; L 1.37; M 1.79; N 1.92; P 1.67; Q 2.03; S 3.07; T 1.89; V 1.11; W 1.62; Y 1.19
D4: C 1.73; E 1.94; H 1.43; K 1.8; L 1.53; N 2; P 2; T 2.1; Y 1.65
G5: A 1.92; C 1.34; D 3.16; E 2.67; I 1.89; K 1.96; L 1.74; M 3.4; N 3.01; P 1.81; Q 2.15; R 2.07; T 2.27; V 2.61; Y 1.27
L6: A 1.98; C 1.55; D 2.07; F 2.43; H 2.27; I 2.15; K 1.65; M 2.41; N 3.26; P 1.63; Q 2.33; R 1.92; T 1.67
H7: A 1.58; C 1.86; D 3.61; E 1.84; F 2.87; G 1.4; I 2.17; K 1.17; L 1; M 1.03; N 1.68; P 2.09; Q 1.08; R 3.03; T 1.65; V 2.42
V8: A 1.94; C 1.38; D 1.88; E 2.59; G 1.75; H 1.83; I 1.92; K 1.1; L 1.53; M 1.03; N 1.68; Q 3.68; R 1.84; S 2.41; T 1.86; W 2.92
A9: C 2.51; D 1.71; E 2.01; F 5.19; H 1.7; I 2.66; K 1.67; L 2.62; M 1.79; N 2.09
